In general, Kd refers to a measure of binding affinity in units of concentration. A high value points to a looser complex. In general, koff refers to the rate constant with which the complex falls apart. Read a high koff as fast dissociation. As a reminder, the kon is the second-order rate constant of association. Low values mean slow association, high ones fast association.

For this assay, the target named is BSA-STn. In words: SPR, BSA-STn-serine immobilised on the chip as ligand, antibody injected as analyte. In general terms: Surface plasmon resonance follows binding to a sensor surface in real time, without labels.

B1: humanized anti-STn antibody clone V3 (antibody, V domains shown)
VH: QVQLQESGPGLVKPSQTLSLTCSVIGYSITSGYYWNWIRQPPGKGLEWIGSINYDGSNIYNPSLKDRVTISRDTSKNQFSLKLSSVTAADTAVYYCARGGDYWGQGTTVTVSS
VL: EIVLTQSPATLSLSPGERATLSCSASSSVSYMHWFQQKPGQAPRRWIYDTSKRATGVPARFSGSGSGTDYTLTISSLEPEDFAAYYCQQWSSDPPMLTFGGGTKLEIK
For B1, the Kd was 33.2 nM, the koff came out at 0.00568 s⁻¹ and the kon stood at 171000 M⁻¹ s⁻¹.

B2: humanized anti-STn antibody clone V1 (antibody, V domains shown)
VH: QVQLQESGPGLVKPSQTLSLTCTVIGYSITSGYYWNWIRQPPGKGLEWIGSINYDGSNIYNPSLKSRVTISRDTSKNQFSLKLSSVTAADTAVYYCARGGDYWGQGTTVTVSS
VL: EIVLTQSPATLSLSPGERATLSCSASSSVSYMHWFQQKPGQAPRRWIYDTSKRATGVPARFSGSGSGTDYTLTISSLEPEDFAAYYCQQWSSDPPMLTFGGGTKLEIK
Molecule B2 displayed a Kd of 31.7 nM, a koff of 0.00553 s⁻¹ and a kon of 174000 M⁻¹ s⁻¹.

B3: humanized anti-STn antibody clone V2 (antibody, V domains shown)
VH: QVQLQESGPGLVKPSQTLSLTCSVIGYSITSGYYWNWIRQPPGKGLEWIGSINYDGSNIYNPSLKDRVTISRDTSKNQFSLKLSSVTAADTAVYYCARGGDYWGQGTTVTVSS
VL: DIVLTQSPAILSLSPGERATLSCSASSSVSYMHWFQQKSGQAPKRWIYDTSKLASGVPARFSGSGSGTDYTLTISSLEAEDFAAYYCQQWSSDPPMLTFGGGTKLEIK
B3 had a Kd of 39.4 nM, a koff of 0.00519 s⁻¹ and a kon of 132000 M⁻¹ s⁻¹.

The record behind these values is patent US20260258149A1.
